Test results taken from publication PMC6267192.

Target: TLR2 (human (endogenous in BEAS-2B)) (UniProt O60603)
UniProt O60603, sequence (O60603 21-784): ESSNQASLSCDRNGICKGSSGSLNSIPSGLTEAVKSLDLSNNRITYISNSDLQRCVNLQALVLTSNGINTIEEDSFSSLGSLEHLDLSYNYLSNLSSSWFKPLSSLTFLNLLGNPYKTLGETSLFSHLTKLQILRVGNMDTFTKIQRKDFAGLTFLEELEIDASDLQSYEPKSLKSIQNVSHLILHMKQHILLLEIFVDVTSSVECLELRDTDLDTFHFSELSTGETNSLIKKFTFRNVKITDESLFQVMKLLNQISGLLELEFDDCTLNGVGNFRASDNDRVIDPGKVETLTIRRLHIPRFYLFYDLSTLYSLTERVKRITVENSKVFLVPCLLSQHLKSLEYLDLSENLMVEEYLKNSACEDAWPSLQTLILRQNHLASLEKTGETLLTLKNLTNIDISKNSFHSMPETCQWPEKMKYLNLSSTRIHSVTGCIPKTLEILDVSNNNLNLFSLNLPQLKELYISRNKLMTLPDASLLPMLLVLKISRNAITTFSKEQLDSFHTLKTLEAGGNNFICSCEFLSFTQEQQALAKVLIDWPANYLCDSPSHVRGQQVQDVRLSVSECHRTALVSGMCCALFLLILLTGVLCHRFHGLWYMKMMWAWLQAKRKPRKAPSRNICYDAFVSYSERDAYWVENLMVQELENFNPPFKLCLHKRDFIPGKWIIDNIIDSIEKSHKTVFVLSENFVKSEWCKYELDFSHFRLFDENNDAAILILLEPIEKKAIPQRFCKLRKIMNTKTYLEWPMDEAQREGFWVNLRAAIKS

Row | Substance | IL-8 release from BEAS-2B cells, allergen at 25 µg/mL, 24 hours
1 | recombinant Der p 2 variant 2.0110 (from UniProt P49278 18-146) (natural protein) | 310 pg/mL
2 | Der p 2.0110 S47W (natural protein) | 157 pg/mL
